Laboratory results published in patent US20140065069A1, “Materials and Methods Relating to Cardiovascular Imaging” (KING'S COLLEGE LONDON, priority 2011, published 2014).
Entries after “also recorded” stand apart in the source; their conditions may differ. No end group written: not given here.

Tests used:
tropoelastin = molecular target: T1, tropoelastin (Mus musculus, UniProt P54320); assay: In vivo imaging of plaques in HFD fed ApoE−/− mice with gadolinium labelled conjugates; settings: gadolinium labelled conjugate
T1 construct: from tissue; host or cells: plaque-laden brachiocephalic artery and aortic arch of living HFD-fed ApoE-/- mice
T1 sequence (P54320 28-860): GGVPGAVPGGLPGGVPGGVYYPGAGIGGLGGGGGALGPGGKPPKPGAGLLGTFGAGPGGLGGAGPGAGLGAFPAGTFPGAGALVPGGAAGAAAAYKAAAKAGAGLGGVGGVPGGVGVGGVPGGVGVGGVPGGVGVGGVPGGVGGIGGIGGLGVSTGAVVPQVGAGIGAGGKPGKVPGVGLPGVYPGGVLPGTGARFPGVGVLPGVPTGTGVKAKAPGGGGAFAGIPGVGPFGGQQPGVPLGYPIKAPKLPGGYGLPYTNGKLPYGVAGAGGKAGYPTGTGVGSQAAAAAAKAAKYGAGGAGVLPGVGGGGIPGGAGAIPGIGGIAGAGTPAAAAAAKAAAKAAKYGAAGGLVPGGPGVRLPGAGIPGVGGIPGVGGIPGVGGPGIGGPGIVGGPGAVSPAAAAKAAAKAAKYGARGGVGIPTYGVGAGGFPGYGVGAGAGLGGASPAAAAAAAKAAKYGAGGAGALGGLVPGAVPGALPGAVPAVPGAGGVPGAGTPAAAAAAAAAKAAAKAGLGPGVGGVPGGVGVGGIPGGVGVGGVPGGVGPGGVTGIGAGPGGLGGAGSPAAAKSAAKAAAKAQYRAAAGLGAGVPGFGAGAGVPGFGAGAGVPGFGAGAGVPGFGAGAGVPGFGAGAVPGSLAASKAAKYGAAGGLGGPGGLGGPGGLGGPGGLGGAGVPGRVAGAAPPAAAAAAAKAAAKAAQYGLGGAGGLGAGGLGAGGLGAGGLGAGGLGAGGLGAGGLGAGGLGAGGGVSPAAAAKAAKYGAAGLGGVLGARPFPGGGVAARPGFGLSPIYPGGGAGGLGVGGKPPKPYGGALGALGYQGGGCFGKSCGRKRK
Text: MRI will be performed in a mouse model of progressive atherosclerosis at 4, 8 and 12 weeks post commencement of a high fat diet and in a model of angiotensin-II (Ang-II) induced aortic aneurysm formation at 1, 2, 3 and 4 weeks post Ang-II releasing mini pump implantation. Ten mice will be scanned at each time point either receiving the tropoelastin or TNF-alpha binding contrast agent (CA) resulting in a total of […], respectively. Animals will undergo a pre and post contrast MRI session at each time point and subsequently will be sacrificed for validation with histology, immunostaining, electron and mass spectroscopy.

Row | Substance | uptake in plaque-free carotid artery (tropoelastin) | uptake in plaque-laden brachiocephalic artery (BCA) and aortic arch (tropoelastin) | time of imaging post contrast injection (12 weeks HFD fed ApoE−/− mice) [h] | biodistribution (HFD fed ApoE−/− mice) | renal clearance (HFD fed ApoE−/− mice)
1 | (DOTA-Gd)-VVGSPSAQDEASPLS (not fully specified (N-terminus); printed as (DOTA-Gd)-VVGSPSAQDEASPLS; also: Gd complexed by DOTA) | no uptake; also recorded: not in the plaque-free carotid artery | preferential uptake | ≥ 1 | favourable biodistribution | rapid renal clearance
2 | K(DOTA-Gd)-YPDHVQYTHY (not fully specified (N-terminus); printed as K(DOTA-Gd)-YPDHVQYTHY; also: Gd complexed by DOTA on the N-terminal Lys) [K-(DOTA-Gd)-YPDHVQYTHY] | no uptake | preferential uptake |  |  | 
